Assay results from US20060104980A1.

What was measured:
[1] = target: HCV 1b E2 deletion construct pDN-411 (influenza virus; Hepatitis C virus genotype 1b); experiment: GNA capture ELISA, HEK-293 extracts
[2] = target: HCV 1b E2 deletion construct pDN-411 (influenza virus; Hepatitis C virus genotype 1b); experiment: flow cytometry, transiently transfected HEK-293 cells, 10 ug/ml

Substance | OD [1] | mean fluorescence [2]
HMAb CBH-2 (antibody) | 0.1 to 0.5 od | –
HMAb CBH-17 (antibody) | 0.1 to 0.5 od | –
HMAb CBH-8C (antibody) | > 0.5 od | –
HMAb CBH-8E (antibody) | 0.1 to 0.5 od | –
HMAb CBH-7 (antibody) | > 0.5 od | 19
HMAb CBH-5 (antibody) | > 0.5 od | 17
HMAb CBH-4B (antibody) | > 0.5 od | 17
